Test results as given in patent US20040176567A1, “Modified calcitonin” (priority 2001, published 2004).
Marks after values point to notes of the source that are not given here. Bridge positions count the residues as written; N and C are the ends. Ends that are not written are not given here.

Tests used:
[1] = Secondary structure (helical content) by circular dichroism; assay type: physicochemical; details: for Helical content compared with hCT: neutral and low pH (7.0 and 3.0); for Helical content by CD: neutral pH (7.0), 25° C., ellipticity at 222 nm
Experimental: FIG. 2. Secondary structure of calcitonin peptides measured by circular dichroism. Experiments reflect the thermal denaturation profile of the peptides at pH 7.0 and 3.0 respectively. Ellipticity was measured at 222 nm and reflects the α-helical content of the peptides. Helical content based on CD spectra calculations (25° C.) according to Chen et al. (1974). Biochemistry 13, 3350-59.
Circular dichroism and Nuclear magnetic resonance were used to characterise the structural properties of human (hCT), salmon (sCT) and 6 chR (6 chR) calcitonin. Peptide concentration was estimated by amino acid analysis.

[2] = test system: T47D (HTB 133) cells; assay: Calcitonin activity by cyclic AMP intracellular accumulation; assay type: cell-based, Human; details: for cAMP stimulation compared with basal levels: saturation concentration 1·10^−6 M, 15 min at 37° C., T47D cells
Text: Activity tests may be carried out in suitable animal models using, for example chickens or mice. Activity can also be monitored in vitro, for example in cellular cultures. LLC-PKI kidney cells may be used, for which calcitonin has been reported to increase alkaline phosphatase activity and cAMP levels Wohlwend A et al (1985) Biochem Biophys Commen 131 537-542, Miyamoto K. I. et al (1998) Jpn. J. Pharmacol 76.193-198. […] We used a combination of two previously described systems with some modifications (Zimmerman, U. et al, 1997, J. Endocrinol. 155, 423-431; Miyamoto, K. I. et al, 1998, Jpn. J. Pharmacol 76, 193-198). Human ductal carcinoma T47D (HTB 133) cells were used for the assays.
T47D (HTB 133) cells were purchased from the American Type Culture Collection (ATCC) and grown in RPMI-1640 modified medium (ATCC) containing 2 mM L-glutamine, 10 mM HEPES, 1 mM sodium pyruvate, 4.5 g/L glucose and 1.5 g/L sodium bicarbonate. This medium was supplemented with 10% heat-inactivated fetal calf serum, 25 μg/mL gentamycin and 100 nM dexamethasone, this last to enhance the expression of calcitonin receptors. Cells were grown in a humidified atmosphere of 95% air-5% CO2 at 37° C.
Cyclic AMP (cAMP) accumulation was used to measure the degree of stimulation upon incubation in the presence of different calcitonin peptides. Typically cells were grown in multi-well plates until confluency was reached and then washed with pre-heated DPBS-glucose (Gibco, Invitrogen) to remove any traces of fetal serum. Sample solutions were prepared by dissolving different amounts of hCT, sCT and 6 chR (6 CT) in DPBS-glucose supplemented with 0.1% BSA and 1 mM IBMX (3-isobuthyl-1-methylxanthine). After being washed, cells were incubated for 15 min at 37° C. in the presence of the peptide solutions. Medium was then removed by aspiration and cells were rapidly frozen on dry-ice and then kept at −80° C. until cAMP measurements were carried out.
Cyclic AMP content of different samples was measured using a commercial AMP enzyme immunoassay (EIA) system (Biotrak, Amersham-Biotech) according to manufacturer's specifications. Different dilutions of cellular extracts were measured in order to cover the whole range of stimulation caused by calcitonin incubation. Saturation concentrations (1·10^−6 M) of the three peptides (hCT, sCT & 6chR) were used to establish the maximum capacity of stimulation for each one of the different sequences. […] All three peptides show clear stimulation effects confirming the calcitonin-like activity of the engineered 6 chR (6 CT) peptide.

[3] = Aggregation studies, turbidity at 340 nm; assay type: physicochemical; details: for Aggregation time (turbidity at 340 nm) / Aggregation time (development of turbidity at 340 nm) / Aggregation time (half time, turbidity at 340 nm): 37° C., pH 7.2
Experimental: Aggregation analysis was carried out as reported previously (Arvinte, T. et al., 1993, J. Biol. Chem, 268, 6415-6422) using PBS 5 mM sodium phosphate, 145 mM NaCl, pH 7.2. (sodium phosphate saline buffer) pH 7.2 and adding a minor amount of sodium azide to prevent bacterial growth (0.1%). Samples were always incubated at 37° C.
Aggregation was monitored by measuring turbidity at 340 nm. Different concentrations of peptide were tested.

[4] = target: calcitonin receptors on human ductal carcinoma T47D (HTB 133) cells (human) (UniProt P30988); assay: cell-based or functional assay; details: scale: orders of magnitude compared with the basal levels
Chain of UniProt P30988 (P30988 25-474, stated change not applied): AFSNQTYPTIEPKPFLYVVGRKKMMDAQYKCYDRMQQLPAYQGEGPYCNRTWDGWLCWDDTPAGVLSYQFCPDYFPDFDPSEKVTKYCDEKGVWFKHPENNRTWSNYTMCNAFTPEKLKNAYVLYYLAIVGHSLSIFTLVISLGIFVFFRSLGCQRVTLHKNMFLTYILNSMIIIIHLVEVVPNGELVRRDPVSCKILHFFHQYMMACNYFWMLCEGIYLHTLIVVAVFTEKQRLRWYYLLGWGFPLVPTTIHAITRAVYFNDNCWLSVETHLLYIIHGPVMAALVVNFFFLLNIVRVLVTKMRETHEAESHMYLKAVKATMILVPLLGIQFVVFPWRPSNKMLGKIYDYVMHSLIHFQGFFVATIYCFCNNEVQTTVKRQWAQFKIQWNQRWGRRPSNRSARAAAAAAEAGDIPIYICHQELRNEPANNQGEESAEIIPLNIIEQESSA

With “CSNLSTCVLGKLSQELHKLQTYPRTNTGSGTP [Salmon-1]” the “Helical content compared with hCT” value [1] was “higher helical content than hCT”, the “Helical content by CD” value [1] was 22.5% and the “cAMP stimulation compared with basal levels” value [2] was “close to three orders of magnitude”.
With “CGNLSTCMLGKLTQELRKLHTFPQTAIGVGAP (disulfide 1-7; ends not checked) [6chR]” the “Time required to aggregate relative to the human peptide” value [3] was “at least two orders of magnitude larger”, the “Aggregation time (turbidity at 340 nm)” value ([3]; 1 mg/mL filtered 0.5 μm, no aggregation detected at the end of the experiment) was “(>10 months)^c” and the “Aggregation time (turbidity at 340 nm)” value ([3]; 10 mM (~35 mg/mL) unfiltered) was 18 days. The “Aggregation time (turbidity at 340 nm)” value ([3]; 10 mg/mL filtered 0.5 μm, no aggregation detected at the end of the experiment) was “(>10 months)^c”, the “Aggregation time (turbidity at 340 nm)” value ([3]; 10 mg/mL unfiltered, no aggregation detected at the end of the experiment) was “(>10 months)^c” and the “Aggregation behaviour compared with human calcitonin (FIG. 1)” value ([3]; 35 mg/mL, solutions not filtered) was “aggregates much more slowly than the human form”. The “Time without detectable aggregation” value ([3]; concentrations of 10 mg/mL or below, unfiltered and filtered solutions) was > 10 months, the “Helical content compared with hCT” value [1] was “enhanced helical content” and the “Helical content by CD” value [1] was 21.1%. The “cAMP stimulation effect compared with hCT and sCT” value ([2]; 1·10^−6 M, T47D cells (FIG. 3)) was “clearly higher than that of the hCT and even the sCT peptide” and the “cAMP stimulation compared with basal levels” value [2] was “close to three orders of magnitude”.
“salmon calcitonin (from UniProt P01263 83-114) (peptide)” showed an intracellular cAMP accumulation in T47D cells, peptide at saturation concentration 1·10^-6 M, 15 min, cAMP EIA [4] of 3.
In the case of “CGNLSTCMLGTYTQDFNKFHTFPQTAIGVGAP [Human, reference compound]”, the “Aggregation time (development of turbidity at 340 nm)” value ([3]; 1 mg/mL filtered 0.5 μm) is reported as “˜45 days”, the “Aggregation time (half time, turbidity at 340 nm)” value ([3]; 10 mM (~35 mg/mL) unfiltered) is reported as 4 h and the “Aggregation time (development of turbidity at 340 nm)” value ([3]; 10 mg/mL filtered 0.5 μm) is reported as “˜26 days”. For the same substance, the “Aggregation time (half time, turbidity at 340 nm)” value ([3]; 10 mg/mL unfiltered) was “˜30 hours”, the “Helical content by CD” value [1] was 11.3% and the “cAMP stimulation compared with basal levels” value [2] was “close to three orders of magnitude”.
